From patent US20100167390, “Novel Oligonucleotide and NF-kB Decoy Comprising the Same” (published 2010)

Target: NF-kB p65 (RelA) (UniProt Q04206 Q04206:1-551)
Test: competition; primary screen 2.10
Conditions: protein: extract; tags: TPA and CI-stimulated Jurkat nuclear extract, Active Motif TransAM kit
Protocol: The measurement was performed in accordance with the instructions attached to the kit. The kit was made for quantifying the NF-κB bound to the solid phase by ELISA after adding an NF-κB solution to the wells in which the NF-κB (p65 protein) consensus binding sequence was immobilized and after washing the resultant. By this measurement method, the higher the binding capacity of the oligonucleotide to the NF-κB, the smaller amount of the NF-κB quantified by the ELISA.
More concretely, the above-described measurement was carried out as follows concretely: Each SODN solution was serially diluted with Complete Binding Buffer contained in the kit to prepare test samples (common ratio: 3-fold, 4 times, n=3). […] After allowing coloration for 10 minutes, the Stop Solution was added to stop the reaction, and the absorbances at 450 nm and 630 nm were measured.
The absorbance at 630 nm was subtracted from the absorbance at 450 nm and the mean value of the blanks was further subtracted from the resultant, and the percentage of the mean value of each concentration based on the mean value of the controls was calculated. The concentration at which the calculated value was 50% (i.e., at which the binding was inhibited by 50%) was calculated from the regression lines between two points interposing 50% (an analysis software Graph Pad PRISM 4, GraphPad SOFTWARE was used). […]

NF-kB p65 (RelA), sequence (Q04206 whole entry, one chain of several): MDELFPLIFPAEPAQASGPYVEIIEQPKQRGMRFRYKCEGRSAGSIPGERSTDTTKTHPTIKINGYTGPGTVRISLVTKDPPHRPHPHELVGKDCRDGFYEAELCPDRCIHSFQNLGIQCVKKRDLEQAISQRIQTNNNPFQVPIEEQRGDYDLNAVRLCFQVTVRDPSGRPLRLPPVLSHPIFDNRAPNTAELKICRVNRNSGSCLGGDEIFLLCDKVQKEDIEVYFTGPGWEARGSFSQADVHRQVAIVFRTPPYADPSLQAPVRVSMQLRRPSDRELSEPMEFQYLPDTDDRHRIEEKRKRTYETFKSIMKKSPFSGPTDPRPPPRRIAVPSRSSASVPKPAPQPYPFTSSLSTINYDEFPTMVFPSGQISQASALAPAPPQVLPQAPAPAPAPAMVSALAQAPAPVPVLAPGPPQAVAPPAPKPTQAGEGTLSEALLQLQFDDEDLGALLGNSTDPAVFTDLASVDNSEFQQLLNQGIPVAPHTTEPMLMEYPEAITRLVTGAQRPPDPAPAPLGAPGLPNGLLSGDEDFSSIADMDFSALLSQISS

B1: SODN36 (dsDNA)
DNA 1: CTCGGGATTTCCCAGCTCG
DNA 2: CGAGCTGGGAAATCCCGAG
modifications: PS all bonds, both strands
With B1 the IC50 was 2.61 nM.
